Assay results reported in US20220213181A1 (Novartis, published 2022).
Numbering of substitutions follows the chain as printed.

B1: NEG315 (antibody, human IgG1, kappa, V domains shown)
VH: QVQLVQSGAEVKKPGASVKVSCKASGYTFTNYWITWVRQAPGQGLEWMGDFYPGGGNTNYNAKLQGRVTLTVDTSTSTAYMELRSLRSDDTAVYYCARSPPQVAPFDYWGQGTLVTVSS
VL: DIQMTQSPSSLSASVGDRVTITCQASEYIYNWLGWYQQKPGKAPKLLISGASGLETGVPSRFSGSGSGKDYTFTISSLQPEDIATYYCQQYWSTPWTFGQGTKLEIKR
notes: humanized, hIgG1/kappa, parental antibody 37P1
B2: NEG318 (antibody, human IgG1, kappa, V domains shown)
VH: B1 VH with N31S, Y32F, F51I, G56A, N57T, A62E, A104G
VL: B1 VL with E27D, N31H, G34A, G53S, T94I
notes: humanized, hIgG1/kappa, parental antibody 14P18
B3: NEG319 (antibody, human IgG1, kappa, V domains shown)
VH: B1 VH with N31S, Y32F, F51I, G56A, A62E, A104G
VL: B1 VL with Y30I, G34A, S52T, T94I
notes: as for B2
B4: NEG313 (antibody, human IgG1, kappa, V domains shown)
VH: B1 VH with T30N, N57S
VL: B1 VL with E27D, N31H
notes: as for B1
B5: NEG276 (antibody, human IgG1, kappa)
heavy: not shown
light: EIVMTQSPATLSVSPGERATLSCKASQDIGSNLNWLQQKPGQAPRRLIYAVSNRGPGIPARFSGSRSGSEYTLTISSLQSEDFAVYYCLQYASSPWTFGQGTKVEIKRTVAAPSVFIFPPSDEQLKSGTASVVCLLNNFYPREAKVQWKVDNALQSGNSQESVTEQDSKDSTYSLSSTLTLSKADYEKHKVYACEVTHQGLSSPVTKSFNRGEC
notes: humanized, hIgG1/kappa, parental antibody 19C16
B6: NEG278 (antibody, human IgG1, kappa, V domains shown)
VH: QVQLVQSGAEVKKPGASVKVSCKASAYTFTSSWMQWVRQAPGQGLEWMGEIDPSDNYANYNQKFQGRVTLTVDTSTSTAYMELSSLRSEDTAVYYCASGSYFSNFFDYWGQGTLVTVSS
VL: EIVMTQSPATLSVSPGERATLSCKASQDIGSNLNWLQQKPGQAPRRLIYAASVREPGIPARFSGSRSGSEYTLTISSLQSEDFAVYYCLQYASSPWTFGQGTKVEIKR
notes: as for B5
B7: NEG276-LALA (antibody, human IgG1, kappa, L234A L235A)
heavy: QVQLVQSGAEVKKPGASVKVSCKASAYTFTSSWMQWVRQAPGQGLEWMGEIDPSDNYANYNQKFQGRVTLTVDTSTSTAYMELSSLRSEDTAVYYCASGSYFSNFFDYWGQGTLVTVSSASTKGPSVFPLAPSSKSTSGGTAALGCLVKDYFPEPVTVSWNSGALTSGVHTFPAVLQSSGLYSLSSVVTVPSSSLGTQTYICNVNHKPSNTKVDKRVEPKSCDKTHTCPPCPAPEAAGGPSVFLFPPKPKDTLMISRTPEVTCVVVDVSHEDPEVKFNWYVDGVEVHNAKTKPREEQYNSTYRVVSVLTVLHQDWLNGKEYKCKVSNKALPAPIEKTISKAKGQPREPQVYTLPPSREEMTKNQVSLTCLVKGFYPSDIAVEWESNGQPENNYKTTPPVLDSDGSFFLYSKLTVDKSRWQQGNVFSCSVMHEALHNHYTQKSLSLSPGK
light: B5 light
B8: NEG310 (antibody, human IgG1, kappa, V domains shown)
VH: QVQLVQSGAEVKKPGASVKVSCKASGYTFTSYTMHWVRQAPGQGLEWMGYINPSSGYTKYNQKFQGRVTMTADKSTSTAYMELSSLRSEDTAVYYCAEGWLLLAMDYWGQGTLVTVSS
VL: EAVVTQSPATLSLSPGERATLSCRSSTGAVTTSNYAIWVQEKPGQAPRGLIGGTNNRAPGIPARFSGSLSGDDATLTISSLQPEDFAVYFCALWYSDHWVFGQGTKVEIKR
notes: humanized, hIgG1/kappa, parental antibody 17B1

Tests used:
[1] = target: T1, Human ANGPTL4(26-406)-FLAG-His6-Avi (human, UniProt Q9BY76 24-406, biotin on the C-terminal Avi tag (BirA) where the protein is immobilised); assay: SET (solution equilibrium titration), MSD detection, IgG
T1 construct: the text calls it 20 amino acids), then QP, ANGPTL4 26-406 and FLAG-His6-Avi; the signal peptide is left out here; also called full length human ANGPTL4; hANGPTL4
T1 sequence: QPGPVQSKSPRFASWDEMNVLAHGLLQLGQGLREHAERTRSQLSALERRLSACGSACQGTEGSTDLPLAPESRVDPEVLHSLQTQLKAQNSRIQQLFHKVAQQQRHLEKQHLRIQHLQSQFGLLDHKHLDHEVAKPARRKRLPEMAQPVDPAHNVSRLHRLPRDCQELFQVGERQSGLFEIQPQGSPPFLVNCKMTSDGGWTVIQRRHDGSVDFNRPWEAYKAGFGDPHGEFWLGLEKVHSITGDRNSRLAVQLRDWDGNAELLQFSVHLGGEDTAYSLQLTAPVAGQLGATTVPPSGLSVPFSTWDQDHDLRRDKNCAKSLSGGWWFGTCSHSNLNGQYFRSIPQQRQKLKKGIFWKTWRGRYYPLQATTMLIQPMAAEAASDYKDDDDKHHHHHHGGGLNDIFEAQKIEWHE
Description: (§1) SET assays were performed as follows. In a 96-well polypropylene plate, a constant concentration of ANGPTL4 antibody (10 pM) was mixed with different concentrations of non-biotinylated human, cyno, mouse, or rat full-length ANPGLT4 protein, or human ANGPTL4 N-terminal domain protein (5-fold serial dilution ranging from 0.01 pM to 100 nM) in SET buffer (PBS, pH 7.4 without CaCl₂) or MgCl₂, 0.5% w/v bovine serum albumin (fatty acid free) and 0.02% v/v Tween-20). The final reaction volume was 80 μL. The plate was sealed using an adhesive film and incubated at 22° C. for 14 hours with constant shaking (300 rpm). During the same period of time, a 384-well streptavidin-coated Meso Scale Discovery (MSD) plate was blocked by incubating the plate with 50 μL blocking buffer (PBS, pH 7.4, 5% w/v bovine serum albumin) per well at 4° C. The blocked MSD plate was washed 3 times with wash buffer (PBS, pH 7.4 and 0.05% v/v Tween-20) using a plate washer (BioTek). Biotinylated ANGPTL4 (full-length human, cyno, mouse, or rat ANGPTL4, or human ANGPTL4 N-terminal domain) protein (1 nM, 15 μL per well) was immobilized on the surface of the streptavidin-coated MSD plate by incubation at 22° C. for one hour with constant shaking (600 rpm). The plate was then washed 3 times as described earlier.
(§2) The equilibrium binding reactions (15 μL per well) were applied to the MSD plate with immobilized ANGPTL4 and incubated for 20 min at 22° C. The unbound material was removed by washing the plate 3 times with wash buffer, and the captured antibody was detected by adding 15 μL per well of a 1:500 dilution of Sulfo-tagged goat anti-human IgG (Meso Scale Discovery). The plate was then incubated for one hour with constant shaking (600 rpm). The plate was washed 3 times, and then 15 μL/well of 1× MSD read buffer T was added and the plate was developed using a Sector Imager 6000 (Meso Scale Discovery). The data were transferred to Microsoft Excel for analysis and plotted using GraphPad Prism v6. The KD values were determined by fitting the data to the following equation: […]
(§3) where Bₘₐₓ is the signal when no ANGPTL4 protein is present in solution, CAb is the constant concentration of ANGPTL4 antibody in solution, CAg is the concentration of ANGPTL4 in solution, and KD is the equilibrium dissociation constant.

[2] = target: T2, Cynomolgus monkey ANGPTL4(26-406)-FLAG-His6-Avi (cynomolgus monkey, biotin on the C-terminal Avi tag (BirA) where the protein is immobilised); assay: as above
T2 construct: also called Cyno ANGPTL4 (26-406)
T2 chain: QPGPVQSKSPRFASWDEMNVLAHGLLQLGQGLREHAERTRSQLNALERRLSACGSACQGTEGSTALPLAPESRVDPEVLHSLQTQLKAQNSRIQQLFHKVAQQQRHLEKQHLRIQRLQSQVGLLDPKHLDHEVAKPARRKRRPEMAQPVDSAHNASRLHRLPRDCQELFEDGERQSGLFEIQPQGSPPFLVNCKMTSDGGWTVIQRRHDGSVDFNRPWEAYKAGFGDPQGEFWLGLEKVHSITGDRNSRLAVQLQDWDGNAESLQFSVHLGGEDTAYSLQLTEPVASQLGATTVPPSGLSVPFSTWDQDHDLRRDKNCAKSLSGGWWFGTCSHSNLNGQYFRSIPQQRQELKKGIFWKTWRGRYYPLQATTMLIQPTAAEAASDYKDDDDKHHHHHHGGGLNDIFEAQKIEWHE
Description: as §1, §2, §3

[3] = target: T1, Human ANGPTL4(26-406)-FLAG-His6-Avi; assay: Octet (ForteBio) kinetics, biotinylated antigen on streptavidin sensor, IgG in solution
Description: Dissociation constants (KD) were determined for selected antibodies of the invention by using an Octet (ForteBio) kinetic binding assay. ForteBio 10× Kinetics Buffer (ForteBio, catalog number 18-5032) was diluted 10-fold with DPBS (Life Technologies, catalog number 14190-136), and the resulting solution was added (0.2 ml per well) to a 96-well plate (Greiner, catalog number 65520). Streptavidin sensors (ForteBio, catalog number 18-5020) were immersed in the solution and equilibrated for at least 10 min at room temperature. In a second 96-well plate (Greiner, catalog number 65520), sensors were washed in 1× Kinetics buffer, and then immersed in 200 ul of 25 nM biotinylated human ANGPTL4 or a biotinylated reference protein (for background subtraction) for 1000 sec at […] room temperature. […] The sensors were then transferred to a well containing 200 μl 1× Kinetics buffer, and antibody dissociation was monitored for 1200 seconds. Background-corrected association and dissociation curves were globally fitted by Octet Software (ForteBio) to generate association (kₐ) and dissociation (kd) rate constants, which in turn were used to calculate equilibrium dissociation constants (KD).

Row | Binder | Kd [1] [nM] | Kd [2] [nM] | Kd [3] [nM] | koff [3] [s⁻¹] | kon [3] [M⁻¹ s⁻¹]
1 | B1 | 0.012 | 0.021 | 0.029 | 7.9e-06 | 280000
2 | B2 | 0.009 | 0.017 | 0.045 | 1.2e-05 | 270000
3 | B3 | 0.016 | 0.008 | 0.036 | 1e-05 | 280000
4 | B4 | 0.009 | 0.015 | 0.04 | 1.1e-05 | 280000
5 | B5 | 0.024 | 0.014 | 0.023 | 8e-06 | 340000
6 | B6 | 0.015 | 0.02 |  |  | 300000
7 | B7 | 0.008 | 0.007 |  |  | 
8 | B8 | 0.021 | 0.022 | 0.025 | 1.1e-05 | 220000
